B1: REEP1: Receptor Expression Enhancing Protein 1; murine SEQ ID NO: 21, human SEQ ID NO: 27 (protein, listed as Mus musculus)
chain: MVSWIISRLVVLIFGTLYPAYYSYKAVKSKDIKEYVKWMMYWIIFALFTTAETFTDIFLCWFPFYYELKIAFVAWLLSPYTKGSSLLYRKFVHPTLSSKEKEIDDCLVQAKDRSYDALVHFGKRGLNVAATAAVMAASKGQGALSERLRSFSMQDLTTIRGDGAPAPSGPPPPGTGRSSGKHSQPKMSRSASESAGSSGTA
B2: RTP1: Receptor Transporting Protein 1; murine SEQ ID NO: 33, human SEQ ID NO: 37 (protein, listed as Mus musculus)
chain: MRIFRPWRLRCPALHLPSFPTFSIKCSLPPLPTDEDMCKSVTTGEWKKVFYEKMEEVKPADSWDFIIDPNLKHNVLAPGWKQYLELHASGRFHCSWCWHTWQSPHVVILFHMYLDKAQRAGSVRMRVFKQLCYECGTARLDESSMLEENIESLVDNLITSLREQCYGERGGHYRIHVASRQDNRRHRGEFCEACQEGIVHWKPSEKLLEEEATTYTFSRAPSPTKPQAETGSGCNFCSIPWCLFWATVLMLIIYLQFSFRTSV

Key:
[1] = target: T1, mouse odorant receptor OREG (Mus musculus, UniProt Q920P2); assay: CRE-luciferase reporter gene assay, OREG; format: cell-based; conditions: 293T cells; compared to OR alone or control pCI
T1 construct: expressed in transfected cells; host or cells: 293T cells (with or without co-transfected REEP1/RTP1/RTP2) and Hana3A cells (293T stably expressing mouse REEP1, RTP1, RTP2, Galpha-olf)
T1 sequence (Q920P2 1-313): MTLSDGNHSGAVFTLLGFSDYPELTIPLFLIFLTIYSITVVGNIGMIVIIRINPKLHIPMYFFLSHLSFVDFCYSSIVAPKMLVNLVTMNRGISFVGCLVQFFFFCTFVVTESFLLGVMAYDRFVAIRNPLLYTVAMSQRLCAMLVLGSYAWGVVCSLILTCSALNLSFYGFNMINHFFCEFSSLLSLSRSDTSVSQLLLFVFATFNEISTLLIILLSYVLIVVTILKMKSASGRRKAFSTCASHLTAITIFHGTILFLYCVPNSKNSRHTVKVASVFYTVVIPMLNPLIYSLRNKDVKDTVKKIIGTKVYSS
Excerpt: Poor odorant evoked signaling activity in heterologous cell culture systems expressing ORs has been attributed to the poor cell surface expression of ORs. The identification of REEP and/or RTP allowed a direct assessment of this issue. A luciferase reporter gene assay was employed in which a cAMP responsive element (CRE) mediated luciferase gene expression (see FIG. 8A). Because OR activation leads to an increase in cAMP, activation of the mouse odorant receptor OREG by its ligand eugenol was measured in the presence and absence of REEP and/or RTP (see, e.g., Kajiya, K., et al. (2001) J Neurosci 21, 6018-6025; Touhara, K., et al., (1999) Proc Natl Acad Sci USA 96, 4040-4045; each herein incorporated by reference in their entireties). As reported previously, eugenol increased levels of OREG dependent luciferase activity (see, e.g., Katada, S., et al. (2003) Biochem Biophys Res Commun 305, 964-969; herein incorporated by reference in its entirety).
To facilitate analysis of odorant-OR interactions, 293T cell lines were established which stably express REEP1, RTP1, RTP2 and Gαolf, the G protein alpha subunit that couples to OR (see, e.g., Belluscio, L., et al. (1998) Neuron 20, 69-81; Jones, D. T., and Reed, R. R. (1989). Science 244, 790-795; each herein incorporated by reference in their entireties). To establish such cells, linearized expression vectors containing mouse REEP1, RTP1, RTP2 and Gαolf ORFs were transfected into 293T cells with PGK-Pac (puromycin resistant gene) (see, e.g., Watanabe, S., et al. (1995) Biochem Biophys Res Commun 213, 130-137; herein incorporated by reference in its entirety). […] Enhanced cell-surface expression was observed when OREG or other ORs were transfected in Hana3A cells and immunostained (see FIG. 10). […] Expression of Gαolf alone in 293T cells had little or no effect on OR activation using this assay.
Dual-Glo system (Promega) for luciferase assay was used. CRE-Luciferase (Stratagene) was used to measure the receptor activities. Renilla luciferase driven by constitutively active SV40 promoter (pRL-SV40: Promega) was used as an internal control. Cells were plated on poly-D-lysine coated 96 well plates (BIOCOAT, Beckton Dickinson). After 8 hours (for experiments shown in FIGS. 8B and 8C) or 12 hours (for experiments shown in FIG. 8D and FIG. 11) after transfection, the medium was replaced with CD293 chemically defined medium (Invitrogen) and the plates were incubated for one hour at 37 degrees C. The medium was replaced with 50 ul of odorant solutions dissolved in CD293 and incubated for 10 hours (for experiments shown in FIGS. 8B and 8C) or 4 hours (for experiments shown in FIG. 8D and FIG. 11) at 37 degrees C. The manufacture's protocol for measuring luciferase and Renilla luciferase activities was followed. Luminescence was measured using Wallac Victor 1420 (Perkin-Elmer). Normalized luciferase activity was calculated as [Luc (N)-Luc (0)]/RL (N), where Luc (N)=Luminescent count of a certain well, Luc (0)=Luminescent count without odorant for each OR, and RL (N)=Luminescent count of Renilla Luciferase of each well. For cAMP assays, cells were plated onto 24-well plate. […]. Prism software (Graphpad) was used for data analysis.

[2] = test system: MOR203-1; assay: Living-cell staining of cell-surface MOR203-1; format: cell-based, mouse; conditions: accessory protein co-transfected in 293T cells
Excerpt: After hypothesizing that mammalian ORs require accessory protein(s) for functional cell surface expression, a search was instituted for detecting such molecule(s). Long-SAGE (serial analysis of gene expression) libraries (see, e.g., Saha, S., et al., (2002) Nat Biotechnol 20, 508-512; herein incorporated by reference in its entirety) were constructed from single olfactory neurons as well as neurons from the vomeronasal organ and genes were collected that are expressed by these neurons. To identify candidate genes expressed by the olfactory neurons Digital Differential Display (see, e.g., http://www, followed by, .ncbi.nlm.nih.gov/UniGene/info_ddd.shtml) was also used. Candidate genes were investigated for ORFs that encode membrane associated proteins. Genes were selected with similarities to known chaperones and cloned the cDNAs from olfactory epithelium cDNAs. The mRNA expression of each gene was verified by in situ hybridization. After isolating and subcloning into mammalian expression vectors, each cDNA together with a mouse OR (MOR203-1) tagged with a 20 N-terminal amino acids of rhodopsin (Rho-tag), was transfected into 293T cells. We measured whether these clones had any effect on the cell-surface expression of ORs by staining living cells using antibodies against the Rho-tag (see, e.g., Laird, D. W., and Molday, R. S. (1988) Invest Opthalmol Vis Sci 29, 419-428; herein incorporated by reference in its entirety). When MOR203-1 was transfected alone, antibody staining detected only faint cell-surface expression in less than 1% of the cells. A schematic diagram outlining the screening procedure utilized with the present invention is provided at FIG. 1.
293T cells were maintained in minimal essential medium containing 10% fetal bovine serum (M10). Lipofectamine 2000 (Invitrogen) was used for transfection. In live-cell staining, 16 hours after transfection, cells were incubated in M10 containing anti rhodopsin antibody, 4D2 (see, e.g., Laird, D. W., and Molday, R. S. (1988) Invest Opthalmol V is Sci 29, 419-428; herein incorporated by reference in its entirety) and 15 mM NaN3 at 4 degrees C. for 1 hour. After washing, cells were incubated with Cy3-conjugated anti mouse IgG (Jackson Immunologicals), washed and mounted. For FACS analysis, 4D2 and PE-conjugated anti mouse IgG (Jackson Immunologicals) were used to monitor the Rho tagged receptor expression. Anti HA rabbit antibodies (Sigma) and Alexa 488 conjugated anti rabbit IgG (Molecular Probes) was used to stain the HA-β2 adrenergic receptor. To establish the Hana3a cells, 1 ug/ml of puromycin was used for selection. 96 colonies were picked and assayed using luciferase assay using OREG.

[3] = test system: MOR203-1; assay: Co-immunoprecipitation with HA-tagged MOR203-1; format: binding, mouse; conditions: Flag-tagged protein, 293T cells, HA-MOR203-1 precipitated
Procedure: Given the ability of REEP and/or RTP to promote cell-surface expression of ORs, it was hypothesized that they may also interact with OR proteins. This was assessed using co-immunoprecipitation assays. HA-tagged MOR203-1 and Flag-tagged REEP1, RTP1 or ICAP-1, a negative control (see, e.g., Zawistowski, J. S., et al. (2002) Hum Mol Genet. 11, 389-396; herein incorporated by reference in its entirety) were transfected in 293T cells. After the cell extracts were precipitated with anti-Flag antibodies, proteins were eluted in SDS-sample buffer at room temperature whereupon western blotting analysis was performed to detect the OR proteins. OR proteins were detected as high molecular weight bands after precipitation of REEP1 or RTP1 (see FIG. 7B, lanes 1 and 2). […] The present invention is not limited to a particular mechanism. Indeed, an understanding of the mechanism is not necessary to practice the present invention.
293T cells in 100 mm dishes were transfected with ORs, REEP1, and/or RTP1 cDNAs. 16 hours after transfection, cells were lysed in lysis buffer (50 mM Tris (7.4), 150 mM NaCl, 1% NP-40, 0.5 mM PMSF, 2 mM Benzamidene, 0.5 ug/ml Leupeptin, 1.4 ug/ml pepstatin A, 2.4 ug/ml chymostatin, 15 ug/ml aprotinin, 1 mM sodium orthovanadate). The lysis were incubated with anti-Flag M2 affinity gel (Sigma) or anti-HA affinity matrix (Roche) for 2 hours at 4 degrees C. and washed with lysis buffer. Subsequently, the bound proteins were eluted by incubation with SDS sample buffer at room temperature for 2 hours. SDS-PAGE and western blotting were performed according to Mini-Protean 3 Cell (Bio-Rad) instruction manual. ECL (Amersham) was used for detecting proteins on membranes.

| Molecule | OREG activity by luciferase, accessory protein co-expressed [1] | cell surface expression of MOR203-1 [2] | co-precipitation with HA-MOR203-1 [3] |
| --- | --- | --- | --- |
| B1 | enhanced luciferase activities compared to OR alone | enhanced both the number and staining intensity of cell surface expression | co-precipitated |
| B2 | enhanced luciferase activities compared to OR alone | enhanced both the number and staining intensity of cell surface expression | co-precipitated |

From patent US7838288B2, “Modulators of odorant receptors” (Duke University, priority 2004, dated 2010)
